Assay results: the Immune Epitope Database (IEDB)

Assays:
[1] = biological target: HLA-B*35:01; test: IEDB peptide-MHC binding, purified MHC/competitive/radioactivity; filed as Kd, often an IC50 or EC50 that approximates it; ≥ and ≤ were set here for values at or beyond the usual limits of such assays
[2] = biological target: HLA-B*57:01; test: as above
[3] = biological target: HLA-A*01:01; test: IEDB peptide-MHC binding, purified MHC/direct/fluorescence; filed as Kd, often an IC50 or EC50 that approximates it; ≥ and ≤ were set here for values at or beyond the usual limits of such assays
[4] = biological target: HLA-A*02:01; test: as above
[5] = biological target: HLA-A*03:01; test: as above
[6] = biological target: HLA-A*11:01; test: as above
[7] = biological target: HLA-A*24:03; test: as above
[8] = biological target: HLA-A*26:01; test: as above
[9] = biological target: HLA-A*69:01; test: as above
[10] = biological target: HLA-B*07:02; test: as above
[11] = biological target: HLA-B*08:01; test: as above
[12] = biological target: HLA-B*15:01; test: as above
[13] = biological target: HLA-B*27:05; test: as above
[14] = biological target: HLA-B*40:01; test: as above
[15] = biological target: HLA-B*44:02; test: as above
[16] = biological target: HLA-B*58:01; test: as above
[17] = biological target: HLA-A*11:01; test: IEDB peptide-MHC binding, purified MHC/competitive/fluorescence; ≥ and ≤ were set here for values at or beyond the usual limits of such assays
[18] = biological target: HLA-B*51:01; test: IEDB peptide-MHC binding, purified MHC/competitive/fluorescence; filed as Kd, often an IC50 or EC50 that approximates it; ≥ and ≤ were set here for values at or beyond the usual limits of such assays
[19] = biological target: HLA-A*24:02; test: IEDB peptide-MHC binding, purified MHC/competitive/fluorescence; ≥ and ≤ were set here for values at or beyond the usual limits of such assays
[20] = biological target: HLA-A*31:01; test: IEDB peptide-MHC binding, purified MHC/direct/fluorescence; filed as Kd, often an IC50 or EC50 that approximates it; ≥ and ≤ were set here for values at or beyond the usual limits of such assays
[21] = biological target: HLA-B*53:01; test: IEDB peptide-MHC binding, purified MHC/competitive/radioactivity; filed as Kd, often an IC50 or EC50 that approximates it; ≥ and ≤ were set here for values at or beyond the usual limits of such assays
[22] = biological target: HLA-A*01:01; test: as above; conditions: source organism: Dengue virus 4 Philippines/H241/1956
[23] = biological target: HLA-B*15:01; test: as above
[24] = biological target: HLA-A*02:01; test: IEDB peptide-MHC binding, purified MHC/competitive/fluorescence; ≥ and ≤ were set here for values at or beyond the usual limits of such assays
[25] = biological target: HLA-B*07:02; test: IEDB peptide-MHC binding, purified MHC/competitive/radioactivity; filed as Kd, often an IC50 or EC50 that approximates it; ≥ and ≤ were set here for values at or beyond the usual limits of such assays
[26] = biological target: HLA-B*51:01; test: as above
[27] = biological target: HLA-A*30:02; test: as above; conditions: source organism: Dengue virus 4 Philippines/H241/1956
[28] = biological target: HLA-A*32:01; test: as above; conditions: source organism: Dengue virus 3 Sri Lanka/1266/2000
[29] = biological target: HLA-A*03:01; test: IEDB peptide-MHC binding, purified MHC/competitive/fluorescence; filed as Kd, often an IC50 or EC50 that approximates it; ≥ and ≤ were set here for values at or beyond the usual limits of such assays
[30] = biological target: HLA-A*26:01; test: as above; conditions: source organism: Bacillus anthracis str. A0488
[31] = biological target: HLA-B*18:01; test: IEDB peptide-MHC binding, purified MHC/direct/fluorescence; filed as Kd, often an IC50 or EC50 that approximates it; ≥ and ≤ were set here for values at or beyond the usual limits of such assays; conditions: source organism: dengue virus type 1
[32] = biological target: HLA-A*02:01; test: IEDB peptide-MHC binding, purified MHC/competitive/fluorescence; filed as Kd, often an IC50 or EC50 that approximates it; ≥ and ≤ were set here for values at or beyond the usual limits of such assays; conditions: source organism: Yersinia bercovieri ATCC 43970
[33] = biological target: HLA-B*15:01; test: as above; conditions: source organism: Yersinia bercovieri ATCC 43970
[34] = biological target: HLA-B*39:01; test: as above; conditions: source organism: Yersinia bercovieri ATCC 43970
[35] = source organism: Dengue virus 3 Martinique/1243/1999
[36] = source organism: Dengue virus 1 Brazil/97-11/1997
[37] = source organism: Toxoplasma gondii
[38] = source organism: Sudan ebolavirus
[39] = source organism: Zaire ebolavirus
[40] = source organism: Vibrio parahaemolyticus
[41] = source organism: Dengue virus 2 Jamaica/1409/1983
[42] = source organism: Vaccinia virus WR
[43] = source organism: Dengue virus 4 Philippines/H241/1956
[44] = source organism: Dengue virus 1 Singapore/S275/1990
[45] = source organism: Campylobacter jejuni RM1221
[46] = source organism: Vaccinia virus
[47] = source organism: Dengue virus 3 Sri Lanka/1266/2000
[48] = source organism: Giardia lamblia ATCC 50803
[49] = source organism: Dengue virus 4 Dominica/814669/1981
[50] = source organism: Shigella flexneri

Sequence APTRVVAAEM has a Kd [1, 35] of 0.0203 µM.
ATRLENIMW gave a Kd [2, 36] of 0.00231 µM.
AYMDRKSFK showed a Kd [3, 37] of no less than 20 µM, a Kd [4, 37] of no less than 20 µM and a Kd [5, 37] of 14.7 µM. It also gave a Kd [6, 37] of no less than 5 µM, a Kd [7, 37] of 2.43 µM and a Kd [8, 37] of no less than 20 µM. It also gave a Kd [9, 37] of no less than 20 µM, a Kd [10, 37] of no less than 20 µM and a Kd [11, 37] of no less than 20 µM. For the same sequence, the Kd [12, 37] was no less than 20 µM, the Kd [13, 37] was no less than 20 µM and the Kd [14, 37] was no less than 20 µM. For the same sequence, the Kd [15, 37] was no less than 20 µM and the Kd [16, 37] was no less than 20 µM.
In the case of CPGDYAFHK, the IC50 [17, 38] is reported as 55.3 µM.
With CPLNQLEQF the Kd ([18]; source organism: Entamoeba histolytica HM-1:IMSS) was no less than 20 µM.
With DAVLYYHMM the IC50 [19, 39] was 3.14 µM.
With DNTQSEHSF the IC50 [19, 39] was 49.7 µM.
EEDLPVTWR was tested, and the Kd [3, 40] was no less than 20 µM, the Kd [4, 40] was no less than 20 µM and the Kd [5, 40] was no less than 20 µM. For the same sequence, the Kd [6, 40] was no less than 20 µM, the Kd [8, 40] was no less than 20 µM and the Kd [20, 40] was no less than 20 µM. For the same sequence, the Kd [9, 40] was no less than 20 µM, the Kd [10, 40] was no less than 20 µM and the Kd [11, 40] was no less than 20 µM. It also gave a Kd [12, 40] of no less than 20 µM, a Kd [13, 40] of no less than 20 µM and a Kd [14, 40] of no less than 20 µM. It also gave a Kd [15, 40] of no less than 20 µM and a Kd [16, 40] of no less than 20 µM.
Sequence EPKEGTKKLM has a Kd [1, 41] of no less than 54.4 µM.
EPWLKNNQF gave a Kd [1, 35] of 1.03 µM and a Kd [21, 35] of 2.58 µM.
With EYRFLVINR the IC50 [17, 42] was no less than 490 µM and the IC50 [19, 42] was 57.6 µM.
FALLAGFMAY showed a Kd [22] of 13.5 µM, a Kd [23, 43] of 0.00641 µM and a Kd [1, 43] of 0.0133 µM. For the same sequence, the Kd [21, 43] was 3.15 µM.
Work on GPGHEEPVPM yielded a Kd [1, 35] of 7.2 µM.
GSRAIWYMW showed a Kd [2, 43] of 0.00172 µM.
GTSITQKGII gave a Kd [2, 36] of 9.33 µM.
With ICGLRQLAN the IC50 [19, 39] was 16.2 µM.
IILFQRTFS was tested, and the IC50 [24, 39] was no less than 81.4 µM and the IC50 [19, 39] was no less than 294 µM.
Sequence IPEGRVIDL has a Kd [25, 35] of 0.14 µM.
Work on IPKIYGGPI yielded a Kd [25, 44] of 0.0142 µM and a Kd [26, 44] of 0.63 µM.
IYDYLRLLY gave a Kd [3, 45] of 5.13 µM, a Kd [4, 45] of no less than 20 µM and a Kd [5, 45] of no less than 20 µM. The Kd [20, 45] was no less than 20 µM, the Kd [9, 45] was no less than 20 µM and the Kd [10, 45] was no less than 20 µM. For the same sequence, the Kd ([11]; source organism: Clostridium botulinum NCTC 2916) was no less than 20 µM, the Kd [12, 45] was no less than 20 µM and the Kd [13, 45] was no less than 20 µM. For the same sequence, the Kd [14, 45] was no less than 20 µM, the Kd [15, 45] was no less than 20 µM and the Kd [16, 45] was no less than 20 µM.
KDVSYNDYF showed an IC50 [19, 46] of 41.4 µM.
With KTSLCLMMIL the Kd [2, 47] was 0.00968 µM.
LPVWLAHKVA gave a Kd [1, 35] of 6.68 µM.
MAVFKMSPGY showed a Kd [27] of 0.501 µM and a Kd [1, 43] of 0.667 µM.
For MILPAALAF, the Kd [28] was 0.0295 µM, the Kd [23, 47] was 0.00687 µM and the Kd [1, 47] was 0.394 µM.
With MPSVVETLEQ the Kd [1, 36] was 6.11 µM and the Kd [21, 36] was 1.2 µM.
MTIASVPTSR showed a Kd ([29]; source organism: Influenza A virus (A/equine/California/8560/2002(H3N8))) of 1.01 µM.
With NFAEGVIAF the IC50 [19, 38] was 4.18 µM.
NNIGIEYSK showed an IC50 [17, 46] of no less than 173 µM.
NTVKSFLNF showed a Kd [30] of 0.269 µM.
Work on RTDPVIDNI yielded a Kd [4, 48] of no less than 20 µM, a Kd [5, 48] of no less than 20 µM and a Kd [6, 48] of no less than 20 µM. For the same sequence, the Kd [7, 48] was 2.75 µM, the Kd [8, 48] was no less than 20 µM and the Kd [20, 48] was no less than 20 µM. The Kd [9, 48] was no less than 20 µM, the Kd [10, 48] was no less than 20 µM and the Kd [11, 48] was no less than 20 µM. For the same sequence, the Kd [12, 48] was no less than 20 µM, the Kd [13, 48] was no less than 20 µM and the Kd [14, 48] was no less than 20 µM. For the same sequence, the Kd [15, 48] was no less than 20 µM.
In the case of RWGGTCRIL, the IC50 [19, 38] is reported as 0.23 µM.
In the case of SEHTGREIV, the Kd [31] is reported as 2.04 µM and the Kd ([15]; source organism: dengue virus type 1) is reported as no less than 20 µM.
Sequence SETAGNNNT has an IC50 [24, 39] of no less than 98.4 µM and an IC50 [17, 39] of no less than 363 µM.
For SFQQTNAMV, the IC50 [24, 39] was 31.7 µM and the IC50 [19, 39] was 18.1 µM.
SNTTGKLIW gave an IC50 [19, 39] of 9.97 µM.
With SPAATQKAAL the Kd ([25]; source organism: Dengue virus 4 Singapore/8976/1995) was 0.00366 µM.
With SPGYVLGIFL the Kd [25, 43] was 0.116 µM.
In the case of SPKRLATAIA, the Kd [25, 35] is reported as 0.0341 µM.
With TPNLAERVL the Kd [25, 44] was 0.114 µM.
TPQDNQLTYV gave a Kd [25, 41] of 1.33 µM and a Kd [26, 41] of 16.4 µM.
Work on TPRGAVMDII yielded a Kd [25, 49] of 0.00805 µM and a Kd [26, 49] of 1.35 µM.
Sequence TPRSPSVEV has a Kd [25, 43] of 0.00258 µM and a Kd [26, 43] of 0.538 µM.
Sequence VLKPSVIEE has an IC50 [17, 42] of no less than 257 µM.
VMLIGIEIL gave an IC50 [24, 42] of 0.161 µM and an IC50 [19, 42] of 37.6 µM.
In the case of VPFIRNPNK, the IC50 [17, 42] is reported as 47.2 µM.
Sequence VVISKKDTY has a Kd [3, 50] of no less than 20 µM, a Kd [4, 50] of no less than 20 µM and a Kd [5, 50] of no less than 20 µM. The Kd [6, 50] was 2.96 µM, the Kd [8, 50] was 6.93 µM and the Kd [20, 50] was 5.5 µM. The Kd [9, 50] was no less than 20 µM, the Kd [10, 50] was no less than 20 µM and the Kd [11, 50] was no less than 20 µM. For the same sequence, the Kd [12, 50] was no less than 20 µM, the Kd [13, 50] was no less than 20 µM and the Kd [14, 50] was no less than 20 µM. For the same sequence, the Kd [15, 50] was no less than 20 µM and the Kd [16, 50] was no less than 20 µM.
VVLDLFARK showed a Kd ([29]; source organism: Shigella flexneri 2a str. 301) of 0.175 µM.
WQMFMKVTV showed a Kd [32] of 0.0156 µM, a Kd [33] of 1.29 µM and a Kd [34] of 0.389 µM.
Work on YPYSDDLTI yielded a Kd ([18]; source organism: Escherichia coli K-12) of 0.281 µM.
